Results taken from patent US8129349B2, “Treatment of disease by inducing cell apoptosis” (The Regents of the University of California, priority 2000, dated 2012).

Legend:
procaspase 1 = molecular target: T1, procaspase 1 (Homo sapiens, UniProt P29466); test: Co-immunoprecipitation of purified recombinant procaspase 1 with recombinant C/EBPβ peptides; assay type: binding; settings: peptides 200 μM, procaspase 1 0.6 U, quantitated by densitometry
T1 construct: purchased Alexis Biochemicals 201-056
T1 sequence (P29466 1-404): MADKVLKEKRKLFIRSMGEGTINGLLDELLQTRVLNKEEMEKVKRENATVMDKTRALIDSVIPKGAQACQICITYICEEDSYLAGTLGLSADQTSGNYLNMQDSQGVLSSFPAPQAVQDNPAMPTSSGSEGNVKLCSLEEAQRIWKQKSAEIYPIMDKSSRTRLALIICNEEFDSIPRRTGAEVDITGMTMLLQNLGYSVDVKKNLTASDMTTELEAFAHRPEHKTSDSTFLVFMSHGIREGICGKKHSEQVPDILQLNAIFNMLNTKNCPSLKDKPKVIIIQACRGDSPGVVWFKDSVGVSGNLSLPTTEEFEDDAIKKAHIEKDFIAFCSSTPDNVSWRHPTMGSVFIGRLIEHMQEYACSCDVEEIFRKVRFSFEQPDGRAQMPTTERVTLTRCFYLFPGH
Procedure: (§1) FIG. 5 provides results showing the direct association of C/EBPβ-Glu^217 with procaspases 1 and 8. […] Enzyme activity was measured in the absence (control) or presence of C/EBPβ peptides (200 μM) for 2 h, using a procaspases 1 (1U) (not shown) and 8 (0.2 μg) activity assay. Values are presented as the mean±one half the range of duplicates. Panel C provides results for cells cultured on a collagen type I matrix and incubated with the indicated cell permeant, purified synthetic N-acetyl, C-aldehyde C/EBPβ tetra-peptides (10 μM) or with recombinant C/EBPβ-HA peptides as indicated, together with the Chariot reagent (Active Motif) for 4 h. Control cells were incubated without peptides (P<0.05 for all peptides containing Ala^217).
(§2) Purified recombinant C/EBPβ peptides, expressed as known in the art (See, Descombes et al., supra; and Buck et al. (1994), supra), and purified synthetic N-acetyl, C-aldehyde tetrapeptides (200 μM) (American Peptide Company) were assayed for their ability to inhibit the activity of purified human recombinant caspases 1 (catalogue # 201-056) and 8 (catalogue # 201-041-C005) (Alexis Biochemicals). The sequence of caspase 8 includes Ser217 through Asp479 cloned into an expression vector containing a 21 amino acid linker at the N-terminus. Thus, the prodomain (first 220 amino acids) is essentially missing. The fragment is cleaved at Asp385 and the active caspases are essentially identical to those identified in apoptotic cells (Stennicke and Salvesen, Meth. Enzymol., 322:91-100 (1997)). Caspase activity was determined by the release of the p-nitroaniline colorimetric (Alexis Biochemicals) substrate for caspase 1 (catalogue # 260-026) or 8 (catalogue # 260-045) within the linear part of the kinetic assay (Thornberry et al. (1997), supra; Stennicke and Salvesen, supra). Caspase 1 and 8 activity in cells was performed with colorimetric kits (catalogues # 850-211-K and 850-221-K) as described by the manufacturer (Alexis) (See also, Thornberry et al. (1997), supra). The caspase 8 inhibitor IETD was from Calbiochem (Catalogue # 218773).
To delineate the role of C/EBPβ on the activation of procaspases 1 and 8, the self-activation of recombinant procaspases 1 and 8 was induced in vitro (Wilson et al., supra; Margolin et al., supra; and Earnshaw et al., supra), and the effect of purified recombinant C/EBPβ peptides, produced as described previously (Descombes et al., supra; and Buck et al., (1994), supra) on this process was determined. Consistent with the in vivo results described above, C/EBPβ-HA-Glu^217 and C/EBPβ 216-253-HA-Glu^217, but not C/EBPβ-HA-Ala^217, peptides associated with procaspases 1 and 8 (See, FIG. 5, Panel A). […]

caspase 1 = molecular target: T2, caspase 1 (Homo sapiens, UniProt P29466); test: In vitro self-activation of recombinant caspase 1; assay type: biochemical; settings: peptides 200 μM, 2 h, procaspase 1 (1U)
T2 construct: purchased Alexis Biochemicals 201-056
T2 sequence (P29466 120-404): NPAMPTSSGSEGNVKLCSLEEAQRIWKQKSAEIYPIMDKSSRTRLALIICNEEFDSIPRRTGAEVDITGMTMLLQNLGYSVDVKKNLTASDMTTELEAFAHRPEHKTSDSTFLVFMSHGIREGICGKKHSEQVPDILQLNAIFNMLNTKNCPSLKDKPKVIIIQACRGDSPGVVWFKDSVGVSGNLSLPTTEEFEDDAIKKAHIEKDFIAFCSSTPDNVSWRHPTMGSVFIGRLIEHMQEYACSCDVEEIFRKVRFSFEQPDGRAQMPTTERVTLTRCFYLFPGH
Procedure: as §1
as §2, with “The fragment is cleaved at Asp385 and the active caspases are essentially identical to those identified in apoptotic cells (Stennicke and Salvesen, Meth. Enzymol., 322:91-100 (1997)).” left out, “Caspase 1 and 8 activity in cells was performed with colorimetric kits (catalogues # 850-211-K and 850-221-K) as described by the manufacturer (Alexis) (See also, Thornberry et al. (1997), supra). The caspase 8 inhibitor IETD was from Calbiochem (Catalogue # 218773).” left out
(§3) To delineate the role of C/EBPβ on the activation of procaspases 1 and 8, the self-activation of recombinant procaspases 1 and 8 was induced in vitro (Wilson et al., supra; Margolin et al., supra; and Earnshaw et al., supra), and the effect of purified recombinant C/EBPβ peptides, produced as described previously (Descombes et al., supra; and Buck et al., (1994), supra) on this process was determined. […]

procaspase 8 = procaspase 8 (Homo sapiens, UniProt Q14790); test: Co-immunoprecipitation of purified recombinant procaspase 8 with recombinant C/EBPβ peptides; assay type: binding; set-up: 21 amino acid linker (vector-derived) (N); purchased Alexis Biochemicals 201-041-C005; settings: peptides 200 μM, procaspase 8 0.12 μg, quantitated by densitometry
procaspase 8, sequence (Q14790 217-479): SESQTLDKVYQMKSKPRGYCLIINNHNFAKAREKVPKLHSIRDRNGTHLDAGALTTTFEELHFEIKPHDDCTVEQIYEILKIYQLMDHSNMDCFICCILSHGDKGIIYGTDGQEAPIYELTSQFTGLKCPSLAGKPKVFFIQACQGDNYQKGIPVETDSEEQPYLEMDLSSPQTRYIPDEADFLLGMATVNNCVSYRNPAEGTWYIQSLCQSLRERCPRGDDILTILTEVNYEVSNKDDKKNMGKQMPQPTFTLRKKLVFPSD
Procedure: as §1
as §2, with “The fragment is cleaved at Asp385 and the active caspases are essentially identical to those identified in apoptotic cells (Stennicke and Salvesen, Meth. Enzymol., 322:91-100 (1997)).” left out, “Caspase 1 and 8 activity in cells was performed with colorimetric kits (catalogues # 850-211-K and 850-221-K) as described by the manufacturer (Alexis) (See also, Thornberry et al. (1997), supra). The caspase 8 inhibitor IETD was from Calbiochem (Catalogue # 218773).” left out
as §3

B1: C/EBPβ-Glu^217: modified murine C/EBPβ with mutation of Thr^217 to glutamic acid (SEQ ID NO:4), phosphorylation mimic (protein, listed as Mus musculus)
chain: MHRLLAWDAACLPPPPAAFRPMEVANFYYEPDCLAYGAKAARAAPRAPAAEPAIGEHERAIDFSPYLEPLAPAADFAAPAPAHHDFLSDLFADDYGAKPSKKPADYGYVSLGRAGAKAAPPACFPPPPPAALKAEPGFEPADCKRADDAPAMAAGFPFALRAYLGYQATPSGSSGSLSTSSSSSPPGTPSPADAKAAPAACFAGPPAAPAKAKAKKZVDKLSDEYKMRRERNNIAVRKSRDKAKMRNLETQHKVLELTAENERLQKKVEQLSRELSTLRNLFKQLPEPLLASAGHC
Co-immunoprecipitation of procaspase 1, fold more than the Ala^217 peptides (procaspase 1): 7 fold
Inhibition of in vitro self-activation of caspase 1 (caspase 1): inhibited the in vitro self-activation
Co-immunoprecipitation of procaspase 8, fold more than the Ala^217 peptides (procaspase 8): 12 fold
